Measurements as given in patent CN114671953A (BORGI BIOMEDICAL SCIENCE AND TECH HANGZHOU LIMITED COMPANY, dated 2022).

T1: 人Nectin-4 (human, UniProt Q96NY8 32-349)
T1 construct: construct not described; also called human Nectin-4; PVRL4
T1 sequence (looked up): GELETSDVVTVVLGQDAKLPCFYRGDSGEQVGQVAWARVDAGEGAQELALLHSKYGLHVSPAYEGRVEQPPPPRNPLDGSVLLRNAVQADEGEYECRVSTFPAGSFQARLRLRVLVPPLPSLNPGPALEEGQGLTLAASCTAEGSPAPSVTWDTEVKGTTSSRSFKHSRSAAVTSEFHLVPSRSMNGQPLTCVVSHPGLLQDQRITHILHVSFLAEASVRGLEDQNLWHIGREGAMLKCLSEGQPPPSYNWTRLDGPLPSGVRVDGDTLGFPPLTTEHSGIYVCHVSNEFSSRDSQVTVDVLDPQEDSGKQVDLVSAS


biological target: T1, 人Nectin-4; experiment: BLI, VHH-Fc on anti-hIgG Fc probe, human Nectin-4 as analyte; set-up: 响应: unit not given here

Row | Binder | Kd [nM] | 响应
1 | CMB7-9 (Fc fusion, Tested as VHH fused to human Fc; also called VHH-Fc; not shown: human Fc fused to the VHH) QVQLVESGGGLVQPGGSLRLSCAASGSIFSINAMGWYRQAPGKQRELVASITNGGSTKYDDSVKGRFTISRDNAKNTVYLQMNSLKPEDTAVYYCAAASLVVGGTWEYDTWGQGTLVTVSS | 0.53 | 0.891
2 | CMB7-10 (Fc fusion, Tested as VHH fused to human Fc; also called VHH-Fc; not shown: human Fc fused to the VHH) QVQLVESGGGLVQAGESLRLSCAASGSIFSINAMAWYRQAPGKQRELVAAITSGGSTKYADSVKGRFTISRDNAKNTVYLQMNSLKPEDTAVYYCAAMDRTTLEYDYWGQGTLVTVSS | 0.958 | 0.891
3 | CMB7-11 (Fc fusion, Tested as VHH fused to human Fc; also called VHH-Fc; not shown: human Fc fused to the VHH) QVQLVESGGGLVQAGGSLRLSCAASGSIFSISAMGWFRQAPGNQREMVAAITKGGSVNYADSVKGRFTITRDNAKNTVYLQMNSLKPEDTAVYYCAAAVGAPFEYDYWGQGTQVTVSS |  | 0.94
4 | CMB7-6 (Fc fusion, also called VHH 36; VHH-Fc; not shown: human Fc fused to the VHH) QVQLVESGGGLVQPGGSLRLSCAASGSIFSINVMGWYRQAPGKQRELVATITSGGSVNYADSVKGRFTISRDNANNTVYLQMNTLKPEDTAVYYCTADQLGPLGLLSPTIYWGQGTLVTVSS |  | 0.835
5 | CMB7-22 (Fc fusion, Tested as VHH fused to human Fc; also called VHH-Fc; not shown: human Fc fused to the VHH) QVQLVESGGGLVQAGGSLRLSCAASGSIFSINAMGWFRQAPGKQRELVAAITSGGSTNYAVSVKGRFTISSDKAKNTVYLQMNSLKPEDTAVYYCAAARGEPFEYEYWGQGTLVTVSS |  | 0.841
6 | CMB7-7 (Fc fusion, Tested as VHH fused to human Fc; also called VHH-Fc; not shown: human Fc fused to the VHH) QVQLVESGGGLVQAGGSLRLSCAASGSIFSINAMGWFRQAPGKQRELAAAITSGGSTKYADSVKGRFTISRDNAKNTVYLQMNRLKPEDTGVYYCAAATGEPFEYNYWGQGTQVTVSS |  | 0.972
7 | CMB7-8 (Fc fusion, Tested as VHH fused to human Fc; also called VHH-Fc; not shown: human Fc fused to the VHH) QVQLVESGGGLVQAGGSLRLSCAASGNIFSVNAMGWFRQAPGKQRELVAAITSGGSIRYVDSVKGRFTISRDNAKNTVYLQMNSLKPEDTAVYYCAAARGEPYEYDYWGQGTLVTVSS |  | 0.915

Next, values leading:

Row | Kd [nM] | 响应 | Binder
8 |  | 0.867 | CMB7-19 (Fc fusion, Tested as VHH fused to human Fc; also called VHH-Fc; not shown: human Fc fused to the VHH) QVQLVESGGGLVQAGGSLGLSCAASESIFSYNAMGWFRQAPGKQRELVAAITSGGSIKYADSVKGRFTISRDNAKNTVYLQMNSLKPEDRGVYYCAAMDRTTLEYDYWGQGTLVTVSS
9 |  | 0.97 | CMB7-12 (Fc fusion, Tested as VHH fused to human Fc; also called VHH-Fc; not shown: human Fc fused to the VHH) QVQLVESGGGLVQPGGSLRLACAASGSIFSINVMGWYRQAPGKQREYVASVSRGGSVKYVDSVKGRFTVSRDNAKNTMYLEMNSLKPEDTAIYFCGAETKMGRGFDSWGQGTQVTVSS
10 |  | 0.877 | CMB7-23 (Fc fusion, Tested as VHH fused to human Fc; also called VHH-Fc; not shown: human Fc fused to the VHH) QVQLVESGGGLVQPGGSLRLSCAASGSDFTINVMGWYRQAPGKQRELVATVTSGGSLNYADSVKGRFTISRDNAKNTVYLQMNSLKPEDTAVYYCTADQFGPLGHLSPIIYWGQGTQVTVSS
11 |  | 0.783 | CMB7-20 (Fc fusion, Tested as VHH fused to human Fc; also called VHH-Fc; not shown: human Fc fused to the VHH) QVQLVESGGGLVQPGGSLRLSCAASGSIFSMNVMGWYRQAPGKQRELVATITSGGSTNYADSVKGRFTISRDNANNTVYLQMNSLKPEDTAVYYCTGDQLGPLGTFSPIVYWGQGTQVTVSS
12 | 0.81 | 0.729 | CMB7-18 (Fc fusion, Tested as VHH fused to human Fc; also called VHH-Fc; not shown: human Fc fused to the VHH) QVQLVESGGGLVQAGGSLRLSCAASGSIFSINAMGWHRQGPGDQRELVAAITSGGSTKYVDSVKGRFTISRDNAKNTVYLQMNSLKPEDTGVYYCAAMGGSYEYDYWGQGTQVTVSS
